The values below come from article PMC10020352.

This assay deals with Mu-opioid receptor, P35372.
Mu-opioid receptor, P35372, sequence (P35372 whole entry): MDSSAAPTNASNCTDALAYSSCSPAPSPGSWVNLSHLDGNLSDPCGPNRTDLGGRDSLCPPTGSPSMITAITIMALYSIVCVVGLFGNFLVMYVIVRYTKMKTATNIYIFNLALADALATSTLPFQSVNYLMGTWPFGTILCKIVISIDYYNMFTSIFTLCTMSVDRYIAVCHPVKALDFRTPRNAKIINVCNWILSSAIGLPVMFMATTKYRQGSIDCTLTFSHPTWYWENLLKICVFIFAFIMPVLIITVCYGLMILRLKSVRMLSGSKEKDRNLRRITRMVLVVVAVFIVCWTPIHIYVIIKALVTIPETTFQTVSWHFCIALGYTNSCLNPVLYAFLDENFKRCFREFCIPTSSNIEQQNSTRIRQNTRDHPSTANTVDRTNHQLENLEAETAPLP

Molecule YGGFLRR (modifications not checked) [Dyn1-7] displayed an Activity (EC50, nM) for cAMP in MOP receptor over-expressing HEK293 cells of 3740 nM.
